One may read the Kd as a measure of binding affinity in units of concentration.

Experiment [1] concerns the target T1, human IL-18 (human, UniProt Q14116 37-193).
T1 sequence (looked up): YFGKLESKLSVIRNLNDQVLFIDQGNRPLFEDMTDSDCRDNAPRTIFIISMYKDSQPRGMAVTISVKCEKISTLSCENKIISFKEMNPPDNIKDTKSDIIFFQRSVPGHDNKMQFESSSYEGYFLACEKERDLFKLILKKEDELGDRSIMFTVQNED
The experiment can be described thus: cell-based or functional assay.

The target of experiment [2] is T1, human IL-18. The experiment can be described thus: BIAcore optical biosensor, 25 C; mAb captured on anti-rat IgG Fc surface, IL-18 injected. As for the experimental part:
(§1) Kinetic data was evaluated using relationships described previously (Karlsson et al, J. Immunol. Meth., 145:229-240 (1991) and which is incorporated by reference in its entirely. The mAb (diluted in HBS buffer, 10 mM HEPES, 150 mM NaCl, 0.01% Tween-20. pH 7.4) was injected over a rabbit anti-mouse IgG Fc or goat anti-rat IgG Fc surface, followed by buffer flow and the RU was recorded. IL-18 (diluted in HBS buffer) was then injected for 180 seconds followed by a buffer flow for 500 seconds and the RU was recorded. The sensor chip surface was regenerated by an injection of 0.1 M phosphoric acid.
On the technique in general: SPR reads the build-up and loss of mass on a sensor chip optically.

In experiment [3] the target is T1, human IL-18. The experiment can be described thus: BIAcore optical biosensor, 25 C; mAb captured on anti-mouse IgG Fc surface, IL-18 injected. How it is done:
as §1

B1: rat monoclonal antibody 2C10 (antibody, IgG1, V domains shown)
VH: EVQLQQSGAELVRPGTSVKLSCKVSGEISTGYYFHFVRRRPGQGLEWIGRIDPEDDSTKYAERFKDRATLTAQTSSNTAYLNLSSLTSEDTATYFCTTWRIYRDSSGRPFYVMDAWGQGASVTVSS
VL: DIQMTQSPASLSASLGETVSIECLASEDIYTYLTWYQQKPGKSPQLLIYGANKLQDGVPSRFSGSGSGTQYSLKISGIQPEDEGDYFCLQGSKFPLTFGSGTKLEIKR
notes: Mab purified from a rat hybridoma, isotype IgG1 kappa; also called mAb 2C10; 2C10 (rat)
As to B1, the “Neutralisation IC50” value in experiment [1] came out at 0.1 nM. In experiment [2], this molecule displayed a Kd of 0.039 nM.

B2: rat monoclonal antibody 14B7 (antibody, IgG1, V domains shown)
VH: EVQLQQSGAELVRPGTSVKFSCKVSGDTPTTYYVHFVRQRPGQGLEWIGRIDPEDTSTKYAEKFRNKATFTADPSSNTAYLNLSSLTPEDTATYFCTIMRYHSTYRVYVMDFWGQGTAVTVS
VL: DIQMTQSPASLSASLGETVSIECLASEDIYSYLAWYQQKPGKSPQLLIYATKRLQDGVPSRFSGSGSGTQYSLKISDMQPEDEGDYFCLQNSKFPVTFGSGTKLEIKR
notes: Mab purified from a rat hybridoma, isotype IgG1 kappa; also called mAb 14B7; 14B7 (rat)
Turning to B2, in experiment [1], the “Neutralisation IC50” value was found to be 0.2 nM. In experiment [2], the Kd came out at 0.15 nM.

B3: murine monoclonal antibody 13G9 (antibody, IgG1, V domains shown)
VH: QVTLKESGPGILKPSQTLSLTCSFSGFSLSTSGMGIAWVRQPSGKGLEWLADIWWDDNKYYNPSLESQLTISKDTSRNQVFLTITSVDTADSATYYCARHHYDGSSLLPMDYWGQGTSVTVSS
VL: DVVMTQTPLSLPVSLGDQASISCRSSQSLVHSNGNTYLHWYLQKPGQSPKLLIYKVSNRFSGVPDRFSGSGSGTDFTLKISRVEAEDLGVYFCSQSTHVPPYTFGGGTKLEIKR
notes: Mab purified from a mouse hybridoma, isotype IgG1 kappa; also called mAb 13G9; 13G9 (mouse)
In experiment [3], B3 gave a Kd of 12 nM. For the same molecule, the “Neutralisation IC50” value in experiment [1] was determined as 3 nM.

Values taken from US20040141964A1 (GlaxoSmithKline, published 2004).
